In patent US7537932 one finds specific activity in the bioassay (MTT assay, Baflt minus Ba/F3) and specific activity on the Baf assay (MTT survival assay, Baflt minus Baf signal) (Units per milligram) data, which are given here for one substance.

In this assay the target is mouse Flt3 receptor on Baflt cells (Ba/F3 cells stably transfected with Flt3 cDNA) (mouse) (UniProt Q00342). Put plainly: cell-based or functional assay.
UniProt Q00342, sequence (Q00342 28-1000): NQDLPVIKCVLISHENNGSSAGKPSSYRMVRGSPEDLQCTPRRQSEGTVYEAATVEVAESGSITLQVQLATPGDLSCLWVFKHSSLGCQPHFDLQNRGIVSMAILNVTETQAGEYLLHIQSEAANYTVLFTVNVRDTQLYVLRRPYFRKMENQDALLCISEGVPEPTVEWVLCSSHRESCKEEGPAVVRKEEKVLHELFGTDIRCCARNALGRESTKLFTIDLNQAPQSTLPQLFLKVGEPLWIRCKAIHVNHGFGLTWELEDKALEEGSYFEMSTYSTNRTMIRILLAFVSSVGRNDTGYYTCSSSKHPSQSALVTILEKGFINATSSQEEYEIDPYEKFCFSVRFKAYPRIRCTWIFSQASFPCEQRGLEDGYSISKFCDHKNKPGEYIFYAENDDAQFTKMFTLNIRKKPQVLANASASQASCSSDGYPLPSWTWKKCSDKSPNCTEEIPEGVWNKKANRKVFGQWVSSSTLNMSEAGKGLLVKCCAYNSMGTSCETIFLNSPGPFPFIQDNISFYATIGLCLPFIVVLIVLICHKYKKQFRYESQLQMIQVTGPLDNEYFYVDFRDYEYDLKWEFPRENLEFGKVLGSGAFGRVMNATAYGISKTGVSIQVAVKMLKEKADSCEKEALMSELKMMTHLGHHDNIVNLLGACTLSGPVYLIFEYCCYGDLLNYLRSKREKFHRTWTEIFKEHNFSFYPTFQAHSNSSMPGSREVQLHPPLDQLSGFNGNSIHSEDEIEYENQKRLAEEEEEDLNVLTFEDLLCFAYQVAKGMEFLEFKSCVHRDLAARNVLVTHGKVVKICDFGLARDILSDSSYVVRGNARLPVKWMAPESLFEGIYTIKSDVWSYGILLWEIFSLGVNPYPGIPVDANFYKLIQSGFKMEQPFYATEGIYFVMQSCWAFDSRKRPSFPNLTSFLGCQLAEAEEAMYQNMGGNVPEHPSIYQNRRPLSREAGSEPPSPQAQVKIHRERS

In the case of “purified native mouse Flt3 ligand (naturally occurring soluble form from TA4 thymic stromal cell conditioned medium) (from UniProt P49772 27-189)”, the specific activity in the bioassay (MTT assay, Baflt minus Ba/F3) is 3e+06 units/mg and the specific activity on the Baf assay (MTT survival assay, Baflt minus Baf signal) (Units per milligram) amounted to 1e+07.
